Experimental findings from patent publication US20170298146A1 (MODIQUEST B V, published 2017) are described below.

Non-standard residues stand in square brackets, D forms with d. No end group written: not given here. Cit = NC(=O)NCCC[C@H](N)C(=O)O

In test [1] the target is T1, human recombinant histone H2A (human).
T1 construct: Non-deiminated
Put plainly: ELISA, 10 ug/well. How it is done:
(§1) CFC-1 and CFC-0 were coated at the same concentration and served as positive and negative controls, respectively, for specific anti-citrulline reactivity and as coating controls. Non-coated wells were used to test for aspecific binding of the antibodies. […] Detection of bound anti-citrulline antibodies was performed by incubating the wells with rabbit-anti-human-HRP (1:2000) for one hour at RT followed by incubation with TMB substrate. The resulting OD (y-axis) is a measure for antibody binding. H1=recombinant histone 1; H1/p2=huPAD2 recombinant histone 1; H1/p4=huPAD4 recombinant histone 1 and so forth (x-axis).

The target of test [2] is T2, huPAD2 deiminated human recombinant histone H2A (human).
T2 construct: also called H2A/p2
Description: ELISA, 10 ug/well. How it is done:
as §1
(In an ELISA, binding on a coated surface is turned into a signal by an enzyme label.)

Test [3] concerns the target T3, huPAD4 deiminated human recombinant histone H2A (human).
T3 construct: also called H2A/p4; huPAD4 deiminated histone 2A
Put plainly: ELISA, 10 ug/well. Here is the method: as §1

Test [4] deals with T4, human recombinant histone H2B (human).
T4 construct: Non-deiminated
Description: ELISA, 10 ug/well. How it is done:
as §1

Test [5] deals with T5, huPAD2 deiminated human recombinant histone H2B (human).
T5 construct: also called H2B/p2
Put plainly: ELISA, 10 ug/well. How it is done: as §1

Test [6] concerns the target T6, huPAD4 deiminated human recombinant histone H2B (human).
T6 construct: also called H2B/p4
Put plainly: ELISA, 10 ug/well. Here is the method:
as §1

For test [7], the target named is T7, huPAD2 deiminated human recombinant histone H3 (human).
T7 construct: also called H3/p2
Description: ELISA, 10 ug/well. How it is done: as §1

In test [8] the target is T8, huPAD4 deiminated human recombinant histone H3 (human).
T8 construct: also called H3/p4
Description: ELISA, 10 ug/well. How it is done: as §1

In test [9] the target is human recombinant histone H4 (human, UniProt P62805 2-103). Description: ELISA, 10 ug/well. Here is the method: as §1
The target in test [10] is T9, CFC-1.
T9 construct: Positive control for anti-citrulline reactivity; also called cfc1 XG
Description: ELISA, 10 ug/well. How it is done: as §1

Test [11] has as its target T9, CFC-1. Description: peptide ELISA, 0.4 ug/well. How it is done:
as §1, with “Biotin and citrulline-containing peptides derived from histone 2A were immobilized on NEUTRAVIDIN®-coated 96-well ELISA plates (0.3 μg/well). CFC-1” for “CFC-1”, “controls respectively” for “controls, respectively,”, “binding.” for “binding. H1=recombinant histone 1; H1/p2=huPAD2 recombinant histone 1; H1/p4=huPAD4 recombinant histone 1 and so forth (x-axis).”
(§2) Ninety-six-well ELISA plates were coated with NEUTRAVIDIN® (0.1 μg/well) by overnight incubation at 4° C. Wells were washed five times with PBS-TWEEN®-20 (PBS-T) and blocked by a one-hour incubation with PBS-T+1% Bovine serum albumin (BSA) at room temperature (RT). After five more washes with PBS-T, wells were incubated for one hour at RT with histone-derived citrulline and biotin-containing peptides (0.3 μg/well). […] Wells were washed five times with PBS-T and incubated with rabbit-anti-human-HRP (1:2000) for one hour at RT followed by five washes with PBS-T and three wash steps with PBS. Wells were incubated for five minutes with TMB substrate before stopping the reaction with 2 M H₂SO₄. Optical density was measured by 450 nm and is a measure for the affinity of the antibodies used.

For test [12], the target named is T10, Histone 2A citrulline-containing peptide 1 (human, also: biotin label).
T10 construct: also called AAASGXGKQGGK
T10 peptide: AAASG[Cit]GKQGGK
Put plainly: peptide ELISA, 0.4 ug/well. Here is the method: as §1, with “Biotin and citrulline-containing peptides derived from histone 2A were immobilized on NEUTRAVIDIN®-coated 96-well ELISA plates (0.3 μg/well). CFC-1” for “CFC-1”, “controls respectively” for “controls, respectively,”, “binding.” for “binding. H1=recombinant histone 1; H1/p2=huPAD2 recombinant histone 1; H1/p4=huPAD4 recombinant histone 1 and so forth (x-axis).”
as §2

Test [13] addresses T11, Histone 2A citrulline-containing peptide 2 (human, also: biotin label).
T11 peptide: AKAKS[Cit]SSRAGL
Put plainly: peptide ELISA, 0.4 ug/well. Here is the method:
as §1, with “Biotin and citrulline-containing peptides derived from histone 2A were immobilized on NEUTRAVIDIN®-coated 96-well ELISA plates (0.3 μg/well). CFC-1” for “CFC-1”, “controls respectively” for “controls, respectively,”, “binding.” for “binding. H1=recombinant histone 1; H1/p2=huPAD2 recombinant histone 1; H1/p4=huPAD4 recombinant histone 1 and so forth (x-axis).”
as §2

Test [14] addresses T12, Histone 2A citrulline-containing peptide 3 (human, also: biotin label).
T12 peptide: KSRSS[Cit]AGLQFP
Put plainly: peptide ELISA, 0.4 ug/well. How it is done: as §1, with “Biotin and citrulline-containing peptides derived from histone 2A were immobilized on NEUTRAVIDIN®-coated 96-well ELISA plates (0.3 μg/well). CFC-1” for “CFC-1”, “controls respectively” for “controls, respectively,”, “binding.” for “binding. H1=recombinant histone 1; H1/p2=huPAD2 recombinant histone 1; H1/p4=huPAD4 recombinant histone 1 and so forth (x-axis).”
as §2

B1: RhmAb2.102 (antibody, human IgG1, lambda)
heavy: not shown
light: QSVLTQPPSMSAAPGQKVTISCSGSSSNIGNNYVSWYQQVPGTAPKLLIYDDNKRPSGIPGRFSGSKSATSATLGITGLQAGDEADYYCGSWDDNLSVVLFGGGTKLTVLGQPKAAPSVTLFPPSSEELQANKATLVCLISDFYPGAVTVAWKADSSPVKAGVETTTPSKQSNNKYAASSYLSLTPEQWKSHRSYSCQVTHEGSTVEKTVAPTECS
notes: Human IgG1 lambda; also called Rhm2.102
On to B1, for which the OD in test [1] came out at 0.428 OD; in test [2] it was 3.41 OD; in test [3], 3.42 OD; in test [4] it was 0.247 OD; in [5], 0.31 OD; in test [6], 0.229 OD. The OD in test [7] was 2.44 OD; in [8], 1.31 OD; in test [9], 0.825 OD; with CFC-1 [10] it was 3.48 OD; with CFC-1 [11], 3.06 OD; in test [12] it was 2.8 OD. Moreover, the figures for the OD in test [13] and in test [14] were 0.136 OD and 0.154 OD, respectively.
